Measured values: patent US20020115631A1 (IDUN PHARMACEUTICALS, published 2002)

T1: full length human Bad expressed as a fusion protein with the DNA-binding protein LexA (bait, vector pEGE202) (human, UniProt P0A7C2 1-202 (Escherichia coli entry))
T1 construct: Expressed in yeast EGY191 for the two-hybrid assay; also called Bad-bait; LexA-Bad
T1 sequence: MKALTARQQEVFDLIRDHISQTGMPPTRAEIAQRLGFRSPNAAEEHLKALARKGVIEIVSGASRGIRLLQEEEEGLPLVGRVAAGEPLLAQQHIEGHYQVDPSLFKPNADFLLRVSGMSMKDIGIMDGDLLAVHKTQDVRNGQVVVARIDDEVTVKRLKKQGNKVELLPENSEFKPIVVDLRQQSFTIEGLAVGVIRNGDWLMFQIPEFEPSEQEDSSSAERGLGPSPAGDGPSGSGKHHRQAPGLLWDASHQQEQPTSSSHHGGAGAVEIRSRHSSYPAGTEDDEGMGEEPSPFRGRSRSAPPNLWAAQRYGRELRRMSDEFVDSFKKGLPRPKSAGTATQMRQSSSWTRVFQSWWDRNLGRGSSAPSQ


Legend:
[1] = molecular target: T2, GST-Bcl-xL fusion protein (pGEX 4T1, N-terminal glutathione-S-transferase tag) (human, UniProt Q07817 1-212); assay: ELISA, 6HBad coated on the plate, GST fusion in solution, anti-GST detection
T2 construct: no residue range is printed; also called pGEX-Bcl-XL
T2 sequence (Q07817 1-212): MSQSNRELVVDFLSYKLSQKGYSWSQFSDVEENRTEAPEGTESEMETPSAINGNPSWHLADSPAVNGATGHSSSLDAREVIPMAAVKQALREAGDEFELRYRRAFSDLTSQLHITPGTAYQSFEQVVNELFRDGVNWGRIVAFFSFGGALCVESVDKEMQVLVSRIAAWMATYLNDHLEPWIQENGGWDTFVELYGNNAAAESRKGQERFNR

[2] = molecular target: T3, GST-Bax fusion protein (pGEX 4T1, N-terminal glutathione-S-transferase tag) (human, UniProt Q07812 1-171); assay: as above
T3 construct: no residue range is printed; also called pGEX Bax
T3 sequence (Q07812 1-171): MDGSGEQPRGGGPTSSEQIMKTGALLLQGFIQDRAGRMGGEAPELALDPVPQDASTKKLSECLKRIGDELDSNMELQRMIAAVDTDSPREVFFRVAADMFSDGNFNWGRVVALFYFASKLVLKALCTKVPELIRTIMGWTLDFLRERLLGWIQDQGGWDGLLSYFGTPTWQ

[3] = molecular target: T1, full length human Bad expressed as a …; assay: yeast two-hybrid, beta-galactosidase reporter (LexA-Bad bait, B42 prey)
Source text: Briefly, the full length human Bad sequence was subcloned into the yeast 2-hybrid vector pEGE202, or “bait-vector” to express Bad as a fusion protein wish the DNA-binding protein LexA (Ruden et al., Nature (1991) 350:426-430). Human Bcl-2, Bcl-X, Bax, Bak and Bad were similarly cloned into the yeast 2-hybrid vector pJG4-5, or “prey-vector” to expressed these Bcl-2 family members as fusion proteins with the transcriptional activator B42 (Gyuris et al., Cell (1993) 75:791-803). Briefly, the full length human Bad sequence was amplified by PCR and subcloned into the bait-vector. For the PCR reaction we used the following primers: 5′ATCAGTGAATTCACTATGTTCCAGATCCCA GAC3′ (SEQ ID NO: 4) and 5′ ATCGATCTCGAGTCACTGGGAGGGGGCGGA GCT3′ (SEQ ID NO: 5). The resultant PCR fragment was digested with EcoRI and Xho I and then subcloned into the bait vector. The human Bad sequence was also PCR amplified and subcloned into the prey-vector using the same primers and subcloning strategy as described above. […]
To determine if human Bad binds to any of the above Bcl-2 family members, the Bad-bait plasmid was cotransformed with every prey plasmid and the reporter plasmid p18-34 into the yeast strain EGY191. […] The reaction was stopped with 0.4 M NaOH and the plate was read at an OD 420 nm.

binding result [1]	binding result [2]	binding result [3]	Binder
binds	no binding	–	6HBad fusion protein (full length human Bad with N-terminal six residue Histidine tag, construct pET-15 6H Bad) (other, not shown: small tags and cut ends, Made in E. coli BL21 plysS, purified on nickel, coated on ELISA plates at 4 ug/ml; also called human 6HBad) MFQIPEFEPSEQEDSSSAERGLGPSPAGDGPSGSGKHHRQAPGLLWDASHQQEQPTSSSHHGGAGAVEIRSRHSSYPAGTEDDEGMGEEPSPFRGRSRSAPPNLWAAQRYGRELRRMSDEFVDSFKKGLPRPKSAGTATQMRQSSSWTRVFQSWWDRNLGRGSSAPSQ
–	–	no binding	human Bad expressed as a fusion protein with the transcriptional activator B42 (prey, vector pJG4-5) (other, not shown: large carriers, also called itself; B42-Bad) MFQIPEFEPSEQEDSSSAERGLGPSPAGDGPSGSGKHHRQAPGLLWDASHQQEQPTSSSHHGGAGAVEIRSRHSSYPAGTEDDEGMGEEPSPFRGRSRSAPPNLWAAQRYGRELRRMSDEFVDSFKKGLPRPKSAGTATQMRQSSSWTRVFQSWWDRNLGRGSSAPSQ
–	–	no binding	human Bak expressed as a fusion protein with the transcriptional activator B42 (prey, vector pJG4-5) (other, UniProt Q16611 1-187, looked up, not shown: large carriers, no residue range is printed; also called B42-Bak) MASGQGPGPPRQECGEPALPSASEEQVAQDTEEVFRSYVFYRHQQEQEAEGVAAPADPEMVTLPLQPSSTMGQVGRQLAIIGDDINRRYDSEFQTMLQHLQPTAENAYEYFTKIATSLFESGINWGRVVALLGFGYRLALHVYQHGLTGFLGQVTRFVVDFMLHHCIARWIAQRGGWVAALNLGNGP
